As a reminder, the Kd is the free concentration of one partner at which half of the binding sites on the other are occupied at equilibrium, for simple one-to-one binding.

Drawing on PMC8585875, this text covers fold affinity against the linearly linked hybrid chain (densitometry of the pull-down) and Kd for two substances.

Test [1] addresses H6-Rap80(1-137)-7A-Linker (human) (UniProt Q96RL1). Kind of test: pull-down; H6-Rap80(1-137)-7A-Linker on Ni-NTA agarose; 3.5 µM hybrid chain in 50 µl; 50 mM TRIS pH 7.5, 150 mM NaCl, 2 mM TCEP, 0.1% NP-40; 1 h at 4 °C; Coomassie SDS-PAGE, densitometry normalised to Rap80.
For test [2], the target named is H6-Rap80(35-124)-S18C-C70S-C121S-7A-Linker, Atto488-labelled (human) (UniProt Q96RL1). Kind of test: fluorescence polarisation; fluorescence anisotropy; hybrid chain titrated to 300 nM Atto488-labelled Rap80(35-124); 20 mM Tris pH 6.8, 100 mM NaCl, 4 mM DTT; single-site binding model. On the technique in general: Fluorescence polarisation rises when a labelled molecule tumbles more slowly, as on binding a larger partner.

In test [1], “K63-diUb-K21-SUMO2 hybrid chain (Srt2A/Srt5M-generated) (from UniProt P0CG48 1-76; P0CG48 1-76; P61956 1-95) (complex)” yielded a fold affinity against the linearly linked hybrid chain (densitometry of the pull-down) of 2 fold.
As to “linear diUb-SUMO2 hybrid chain, wt/LPT-linked (from UniProt P0CG48 1-76; P0CG48 1-76) (complex)”, the Kd in test [2] was determined as 1200 nM. In other words, the single-digit micromolar range.
